The results in this text go back to paper PMC11614891.

Square brackets hold non-standard residues; d marks the D form. Ends that are not written are not given here. * marks the point of attachment. Biotin = O=C1N[C@H]2[C@H](CS[C@H]2CCCCC(=O)*)N1

In the assay the target is L-19437_(D-Pep-1). Description: ITC; MicroCal PEAQ-ITC, 19 injections; peptide titrated over the binder (L-19437 15 uM, D-Pep-1 150 uM); PBS pH 7.4; One Set of Sites mode. In general terms: Isothermal titration calorimetry measures the heat released or taken up as one component is titrated into another.

Broadly, the Kd is the concentration at which binding is half-saturated. As a reminder, the stoichiometry N is a count of units in the complex or per binding partner. Molecule Biotin-[dD][dE][dH][dE][dL][dL][dE][dT][dA][dA][dR][dW][dF][dY][dE][dI][dA][dK][dR][dA] [D-Pep-1] displayed a Kd of 48.7 nM and a stoichiometry N of 0.938 sites.
